Target: AcLys, putative Acinetobacter baumannii AB 5075 prophage endolysin (Acinetobacter baumannii AB 5075 (prophage region))
Assay: SEC; gel permeation (size-exclusion) chromatography of recombinant AcLys; Superose 12 HR10/30 in 50 mM Bis-Tris pH 6.0 named for the purification step; monomer and dimer fractions redistribute to the mixture 3-4 h after separation; more monomer in dilute solution; beta-mercaptoethanol does not affect dimerization; dimer to monomers

AcLys, putative Acinetobacter baumannii AB 5075 prophage endolysin (enzyme)
stoichiometry N: 2

— article PMC6024848
